From paper doi:10.1101/2024.08.23.608024 come the findings set out here.

For data set [1], the target named is T1, GbpC (glucan-binding protein C), extracellular fragment (Streptococcus mutans, UniProt Q8DTF1 111-522).
T1 sequence: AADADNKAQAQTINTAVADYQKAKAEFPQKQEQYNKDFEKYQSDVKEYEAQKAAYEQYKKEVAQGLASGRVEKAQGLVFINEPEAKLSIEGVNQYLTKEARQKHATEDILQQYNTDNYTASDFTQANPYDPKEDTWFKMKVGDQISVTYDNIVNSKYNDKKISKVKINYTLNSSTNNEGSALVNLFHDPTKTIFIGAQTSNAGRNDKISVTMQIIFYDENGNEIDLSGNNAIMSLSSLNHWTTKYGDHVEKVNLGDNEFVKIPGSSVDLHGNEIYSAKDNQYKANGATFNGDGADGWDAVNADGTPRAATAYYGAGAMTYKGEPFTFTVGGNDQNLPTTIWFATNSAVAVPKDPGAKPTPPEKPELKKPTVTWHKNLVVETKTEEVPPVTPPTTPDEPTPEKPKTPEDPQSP
Description: BLI. (In general: In BLI a coated tip is dipped into the sample, and binding shifts an interference pattern.)

Data set [2] addresses T1, GbpC (glucan-binding protein C), …. Description: AlphaScreen. (In general: Bead proximity is the source of the signal in Alpha formats.)
The target is the same in data set [3]. Kind of data set: MST.

B1: A39 (flanked) (ssDNA)
DNA: AGATACCAATACGCTGCCTAGCCCCTACCCTGTTGCTCCCCCTCGCCCCTCTCACCCCGCCACTGGTAACGACATC
Broadly, the Kd is the concentration at which binding is half-saturated. Lower therefore signals a tighter complex. Regarding B1, the Kd in data set [1] worked out at 5.7 µM.

B2: A65 (ssDNA)
DNA: AGATACCAATACGCTGCCTTTCCAATTACGCCATGCATCACCCCTAAAATCTGAATACGCCACTGGTAACGACATC
Regarding B2, in data set [2], the binding result is listed as “binds”.
In data set [3], CCGCCGGTCCCGAGCTACAACACTTTACGCCCCCCTCCC (ssDNA) [A96 truncated] had a Kd of 66.9 µM.
TAGCCCCTACCCTGTTGCTCCCCCTCGCCCCTCTCACCCC (ssDNA) [A39 truncated] returned a Kd in data set [3] of 19.6 µM.

B3: A96 (flanked) (ssDNA)
DNA: AGATACCAATACGCTGCCCCGCCGGTCCCGAGCTACAACACTTTACGCCCCCCTCCCCGCCACTGGTAACGACATC
With B3, the Kd in data set [1] was determined as 0.4 µM; in data set [3], 8.5 µM.

B4: A30 (ssDNA)
DNA: AGATACCAATACGCTGCCTTCTTGAAAAAGGGTAGCGCAGGCCGCTAATGACATAACTGCCACTGGTAACGACATC
Turning to B4, the binding result in data set [2] is “binds”.
